{"source": "patent US20140241984A1", "key": {"[1]": {"biological_target": "α-synuclein fibrils (human) (UniProt P37840)", "experiment": "SPR, BIAcore X100; fibrils immobilised on CM5, mAb injected at 0.01-10 nM"}, "[2]": {"biological_target": "α-synuclein fibrils (human) (UniProt P37840)", "experiment": "inhibition ELISA; fibrils against monomers"}}, "data": [{"substance": "mAb 211 (Santa Cruz Biotechnology) (antibody)", "values": [{"measurement": "Kd", "setting": "[1]", "result": 2.56, "unit": "nM"}, {"measurement": "koff", "setting": "[1]", "result": 0.000422, "unit": "s⁻¹"}, {"measurement": "kon", "setting": "[1]", "result": 165000, "unit": "M⁻¹ s⁻¹"}]}, {"substance": "Syn-1 (Mouse anti-α-synuclein; BD Bioscience) (antibody)", "values": [{"measurement": "Fold Affinity to Fibrils", "setting": "[2]", "result": 0.476, "unit": "fold"}]}]}
